Laboratory results taken from patent US20230002478A1.

Target: biotinylated D614G SARS-CoV-2 spike trimer (SARS-CoV-2) (UniProt P0DTC2)
Test: AlphaLISA, inhibition of ACE2-muFc / biotinylated spike complex

“anti-RBD neutralizing monoclonal antibody (human IgG1) from Acro Biosystems (SAD-S35)” gave an IC50 of 1.84 nM.
